From paper PMC7789814, “The influence of various regions of the FOXP2 sequence on its structure and DNA-binding function”
Values belong to the molecule of their own block, whether it stands above or below them.

Columns and labels:
FOXP2 LZ-END [1] = experiment: SEC; 20 µM protein incubated at 20°C for at least 30 min; Superdex 200 10/300 GL; running buffer 500 mM NaCl, 10 mM HEPES pH 7.5, 2 mM DTT; calibrated with 12-200 kDa markers; oligomer size predicted from the monomeric size
FOXP2 FHD-END [2] = experiment: SEC; 20 µM protein incubated at 20°C for at least 30 min; HiLoad 16/60 Superdex 75 prep grade; running buffer 500 mM NaCl, 10 mM HEPES pH 7.5, 2 mM DTT; calibrated with 12-200 kDa markers; oligomer size predicted from the monomeric size
FOXP1 LZ-END [3] = experiment: SEC; 20 µM protein incubated at 20°C for at least 30 min; Superdex 200 10/300 GL; running buffer 500 mM NaCl, 10 mM HEPES pH 7.5, 2 mM DTT; calibrated with 12-200 kDa markers; oligomer size predicted from the monomeric size
FOXP2 LZ-FHD = molecular target: T1, FOXP2 LZ-FHD (UniProt O15409 372-594); experiment: fluorescence anisotropy; FA: 10 mM HEPES pH 7.5, 100 mM NaCl, 0.02% NaN3, 500 nM DNA, temperature not stated; EMSA: 10 mM HEPES pH 7.5, 1 mM MgCl2, 100 mM KCl, 10% glycerol, 0.1 mg/ml BSA, 500 nM DNA, on ice, gel at 4 C; details: protein: recombinant; (purified by nickel IMAC); chain copies: 2; blunt
T1 sequence: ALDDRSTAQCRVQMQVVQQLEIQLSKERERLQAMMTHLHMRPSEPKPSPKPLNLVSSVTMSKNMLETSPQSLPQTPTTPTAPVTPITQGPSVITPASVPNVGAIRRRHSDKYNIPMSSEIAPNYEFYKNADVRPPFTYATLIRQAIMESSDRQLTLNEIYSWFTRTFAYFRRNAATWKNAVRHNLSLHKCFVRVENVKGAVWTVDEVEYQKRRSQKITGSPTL

FOXP2 FHD-END [4] = molecular target: T2, FOXP2 FHD-END (UniProt O15409 504-715); experiment: as above; details: protein: recombinant; (purified by nickel IMAC); chain copies: 2; blunt
T2 sequence: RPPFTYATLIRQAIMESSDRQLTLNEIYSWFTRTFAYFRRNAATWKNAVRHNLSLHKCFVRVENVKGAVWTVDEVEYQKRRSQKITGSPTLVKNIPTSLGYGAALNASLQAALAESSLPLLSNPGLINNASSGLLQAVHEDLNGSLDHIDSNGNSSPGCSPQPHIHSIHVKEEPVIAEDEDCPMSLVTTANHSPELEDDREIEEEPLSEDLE

FOXP2 FHD = molecular target: T3, FOXP2 FHD (UniProt O15409 504-594); experiment: as above; details: protein: recombinant; (purified by nickel IMAC); blunt
T3 sequence: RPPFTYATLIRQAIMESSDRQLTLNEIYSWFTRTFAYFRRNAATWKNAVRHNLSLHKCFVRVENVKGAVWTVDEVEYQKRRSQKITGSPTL

FOXP1 LZ-FHD = molecular target: T4, FOXP1 LZ-FHD (UniProt Q9H334 332-555); experiment: as above; details: protein: recombinant; chain copies: 2; blunt
T4 sequence: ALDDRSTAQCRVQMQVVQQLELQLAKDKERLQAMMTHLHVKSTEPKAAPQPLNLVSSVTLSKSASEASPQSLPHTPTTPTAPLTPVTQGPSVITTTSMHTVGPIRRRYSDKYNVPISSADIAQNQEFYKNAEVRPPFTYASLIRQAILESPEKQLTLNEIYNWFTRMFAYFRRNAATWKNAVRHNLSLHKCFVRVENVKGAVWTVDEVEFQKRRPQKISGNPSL

FOXP2 LZ-END [5] = molecular target: T5, FOXP2 LZ-END (UniProt O15409 372-715); experiment: as above; details: protein: recombinant; (purified by nickel IMAC); chain copies: 8; blunt
T5 sequence: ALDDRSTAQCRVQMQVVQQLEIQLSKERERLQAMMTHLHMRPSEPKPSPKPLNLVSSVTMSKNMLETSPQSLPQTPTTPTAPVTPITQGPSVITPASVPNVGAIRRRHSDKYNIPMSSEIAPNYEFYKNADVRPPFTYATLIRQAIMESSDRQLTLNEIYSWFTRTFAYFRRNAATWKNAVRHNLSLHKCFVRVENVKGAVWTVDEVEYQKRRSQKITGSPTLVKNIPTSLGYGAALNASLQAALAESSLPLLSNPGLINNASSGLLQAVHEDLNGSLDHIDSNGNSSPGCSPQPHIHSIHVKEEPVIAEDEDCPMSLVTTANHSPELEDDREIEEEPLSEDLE

FOXP1 LZ-END [6] = molecular target: T6, FOXP1 LZ-END (UniProt Q9H334 332-677); experiment: as above; details: protein: recombinant; (purified by nickel IMAC); chain copies: 4; blunt
T6 sequence: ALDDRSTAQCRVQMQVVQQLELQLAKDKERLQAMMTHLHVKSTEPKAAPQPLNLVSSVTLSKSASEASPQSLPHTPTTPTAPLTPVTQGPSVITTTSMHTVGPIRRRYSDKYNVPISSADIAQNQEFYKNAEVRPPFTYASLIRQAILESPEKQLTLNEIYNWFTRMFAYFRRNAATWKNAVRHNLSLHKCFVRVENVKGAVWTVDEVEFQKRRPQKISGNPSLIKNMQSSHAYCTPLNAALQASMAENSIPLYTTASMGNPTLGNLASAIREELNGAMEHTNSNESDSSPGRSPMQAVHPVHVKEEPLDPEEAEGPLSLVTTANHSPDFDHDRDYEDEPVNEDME

Molecule: FOXP1 LZ-END (domain or fragment)
percent of the species in the larger oligomer (FOXP1 LZ-END [3]): 60%
stoichiometry N (FOXP1 LZ-END [3]): 4

B1: FOXP2 cognate DNA, ROX-labelled (dsDNA)
DNA 1: TTAGGTGTTTACTTTCATAG
DNA 2: CTATGAAAGTAAACACCTAA
Kd (FOXP2 LZ-FHD): 347 ± 55.4 nM
Kd (FOXP2 FHD-END [4]): 1900 ± 25.1 nM
Kd (FOXP2 FHD): 1746 ± 15.9 nM
Kd (FOXP1 LZ-FHD): 766 ± 12.1 nM
Kd (FOXP2 LZ-END [5]): 326 ± 73.2 nM
Kd (FOXP1 LZ-END [6]): 1280 ± 70.4 nM

More lines, now with the values ahead:

percent of the species in the larger oligomer (FOXP2 LZ-END [1]): 70%
stoichiometry N (FOXP2 LZ-END [1]): < 8
Molecule: FOXP2 LZ-END (domain or fragment)

stoichiometry N (FOXP2 FHD-END [2]): 2
Molecule: FOXP2 FHD-END (domain or fragment)
